Data: patent US20220204643A1 (published 2022)
Values belong to the binder of their own block, whether it stands above or below them.

Columns and labels:
nudix hydrolase 21 = target: T1, nudix hydrolase 21 (human, UniProt O43809 2-227)
T1 construct: HuProt array protein, full-length recombinant from yeast; also called NUDT21

[1] = target: T2, zinc finger protein 431, transcript variant 2 (human, UniProt Q8TF32 1-576)
T2 construct: HuProt array protein, full-length recombinant from yeast; also called ZNF431
T2 sequence (Q8TF32 other isoform, or with tags, fused parts or gaps mutant limits assumed): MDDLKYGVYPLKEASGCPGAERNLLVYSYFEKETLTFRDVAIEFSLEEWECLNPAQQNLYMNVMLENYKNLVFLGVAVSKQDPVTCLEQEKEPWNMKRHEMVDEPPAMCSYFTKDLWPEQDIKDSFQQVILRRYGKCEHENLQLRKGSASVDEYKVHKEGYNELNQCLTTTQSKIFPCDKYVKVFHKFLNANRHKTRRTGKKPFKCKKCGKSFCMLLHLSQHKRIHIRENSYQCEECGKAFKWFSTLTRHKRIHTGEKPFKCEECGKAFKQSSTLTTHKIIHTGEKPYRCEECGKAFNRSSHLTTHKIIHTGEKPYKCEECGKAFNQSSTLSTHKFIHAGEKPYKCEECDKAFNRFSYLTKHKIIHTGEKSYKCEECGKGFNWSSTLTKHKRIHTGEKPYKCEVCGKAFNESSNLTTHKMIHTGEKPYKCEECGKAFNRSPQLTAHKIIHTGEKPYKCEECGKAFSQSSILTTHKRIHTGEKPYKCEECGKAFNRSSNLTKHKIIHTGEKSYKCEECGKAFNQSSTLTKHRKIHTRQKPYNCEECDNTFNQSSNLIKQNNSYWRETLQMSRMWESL

Zinc finger protein 699 = target: T3, Zinc finger protein 699 (human, UniProt Q32M78 1-642)
T3 construct: HuProt array protein, full-length recombinant from yeast; also called ZNF699
T3 sequence (Q32M78 whole entry): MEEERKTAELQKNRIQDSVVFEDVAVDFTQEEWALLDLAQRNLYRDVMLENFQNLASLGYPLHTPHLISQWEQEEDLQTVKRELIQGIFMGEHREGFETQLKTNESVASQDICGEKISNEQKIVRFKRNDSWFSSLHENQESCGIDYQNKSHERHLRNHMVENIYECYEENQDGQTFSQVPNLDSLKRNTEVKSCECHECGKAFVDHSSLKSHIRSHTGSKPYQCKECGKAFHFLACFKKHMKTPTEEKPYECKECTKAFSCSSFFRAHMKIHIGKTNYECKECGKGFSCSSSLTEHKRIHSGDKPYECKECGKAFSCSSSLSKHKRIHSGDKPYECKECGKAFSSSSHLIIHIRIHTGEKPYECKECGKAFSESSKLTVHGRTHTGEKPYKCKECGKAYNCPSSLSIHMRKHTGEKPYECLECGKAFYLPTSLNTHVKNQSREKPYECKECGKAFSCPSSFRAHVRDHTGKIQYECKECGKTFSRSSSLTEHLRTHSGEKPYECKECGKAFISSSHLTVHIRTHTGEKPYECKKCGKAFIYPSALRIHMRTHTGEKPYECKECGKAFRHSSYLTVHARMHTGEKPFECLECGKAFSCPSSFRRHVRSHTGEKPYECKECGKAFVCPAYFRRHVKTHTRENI

Bcl2 like 1 = target: T4, Bcl2 like 1 (human, UniProt Q07817 1-233)
T4 construct: HuProt array protein, full-length recombinant from yeast; also called BCL2L1
T4 sequence (Q07817 whole entry): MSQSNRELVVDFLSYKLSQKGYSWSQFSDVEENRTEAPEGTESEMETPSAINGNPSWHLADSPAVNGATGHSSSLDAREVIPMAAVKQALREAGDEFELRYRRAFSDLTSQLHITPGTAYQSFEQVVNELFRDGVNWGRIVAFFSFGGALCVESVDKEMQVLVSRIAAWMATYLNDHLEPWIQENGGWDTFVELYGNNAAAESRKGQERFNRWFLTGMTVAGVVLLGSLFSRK

[2] = target: T5, arginine and glutamate rich 1 (human, UniProt Q9NWB6 1-273)
T5 construct: HuProt array protein, full-length recombinant from yeast; also called ARGLU1
T5 sequence: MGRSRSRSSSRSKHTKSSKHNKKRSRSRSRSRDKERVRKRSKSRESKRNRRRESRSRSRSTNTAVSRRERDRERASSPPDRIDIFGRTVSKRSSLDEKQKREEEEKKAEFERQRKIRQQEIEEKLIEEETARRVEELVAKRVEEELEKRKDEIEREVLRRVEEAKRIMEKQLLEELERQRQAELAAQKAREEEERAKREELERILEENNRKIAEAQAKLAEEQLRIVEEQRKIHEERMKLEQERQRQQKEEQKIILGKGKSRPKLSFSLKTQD

[3] = target: T6, SAS-6 centriolar assembly protein, transcript variant 2 (human, UniProt Q6UVJ0 168-657)
T6 construct: HuProt array protein, full-length recombinant from yeast; also called SASS6
T6 sequence: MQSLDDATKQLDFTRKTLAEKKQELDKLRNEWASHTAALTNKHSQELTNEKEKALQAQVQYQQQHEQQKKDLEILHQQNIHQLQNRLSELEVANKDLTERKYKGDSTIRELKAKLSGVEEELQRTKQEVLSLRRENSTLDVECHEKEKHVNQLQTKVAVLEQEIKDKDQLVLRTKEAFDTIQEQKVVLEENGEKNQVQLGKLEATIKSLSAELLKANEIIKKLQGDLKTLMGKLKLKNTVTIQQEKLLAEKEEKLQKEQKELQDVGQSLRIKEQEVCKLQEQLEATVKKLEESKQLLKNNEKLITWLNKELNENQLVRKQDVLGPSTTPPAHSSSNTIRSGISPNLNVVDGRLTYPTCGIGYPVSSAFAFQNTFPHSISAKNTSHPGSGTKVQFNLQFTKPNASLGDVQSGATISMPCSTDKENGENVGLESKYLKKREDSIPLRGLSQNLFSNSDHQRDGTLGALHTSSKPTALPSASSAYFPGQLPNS

[4] = target: T7, proteasome 26S subunit, non-ATPase 4, transcript variant 2 (human, UniProt P55036 1-377)
T7 construct: HuProt array protein, full-length recombinant from yeast; also called PSMD4
T7 sequence (P55036 whole entry, change not shown): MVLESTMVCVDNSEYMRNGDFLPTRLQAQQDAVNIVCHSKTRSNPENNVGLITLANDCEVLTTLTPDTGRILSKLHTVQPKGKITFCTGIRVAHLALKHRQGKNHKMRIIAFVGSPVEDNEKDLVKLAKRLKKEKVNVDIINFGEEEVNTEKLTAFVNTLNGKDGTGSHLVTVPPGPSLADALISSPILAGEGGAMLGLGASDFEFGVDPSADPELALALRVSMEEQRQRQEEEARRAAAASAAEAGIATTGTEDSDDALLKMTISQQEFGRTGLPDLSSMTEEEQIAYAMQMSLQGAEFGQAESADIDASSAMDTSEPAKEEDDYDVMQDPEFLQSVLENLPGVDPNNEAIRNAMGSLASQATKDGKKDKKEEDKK

[5] = target: T8, Src like adaptor, transcript variant 1 (human, UniProt Q13239 2-276)
T8 construct: HuProt array protein, full-length recombinant from yeast; also called SLA
T8 sequence: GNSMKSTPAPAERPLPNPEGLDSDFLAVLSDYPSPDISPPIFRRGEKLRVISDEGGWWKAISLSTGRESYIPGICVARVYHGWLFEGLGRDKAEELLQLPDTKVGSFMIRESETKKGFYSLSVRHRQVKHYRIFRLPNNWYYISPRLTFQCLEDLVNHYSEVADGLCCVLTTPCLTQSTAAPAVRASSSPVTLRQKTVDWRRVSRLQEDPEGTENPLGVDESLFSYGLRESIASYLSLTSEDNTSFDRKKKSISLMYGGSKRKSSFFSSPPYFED

zinc finger protein 296 = target: T9, zinc finger protein 296 (human, UniProt Q8WUU4 1-475)
T9 construct: HuProt array protein, full-length recombinant from yeast; also called ZNF296
T9 sequence: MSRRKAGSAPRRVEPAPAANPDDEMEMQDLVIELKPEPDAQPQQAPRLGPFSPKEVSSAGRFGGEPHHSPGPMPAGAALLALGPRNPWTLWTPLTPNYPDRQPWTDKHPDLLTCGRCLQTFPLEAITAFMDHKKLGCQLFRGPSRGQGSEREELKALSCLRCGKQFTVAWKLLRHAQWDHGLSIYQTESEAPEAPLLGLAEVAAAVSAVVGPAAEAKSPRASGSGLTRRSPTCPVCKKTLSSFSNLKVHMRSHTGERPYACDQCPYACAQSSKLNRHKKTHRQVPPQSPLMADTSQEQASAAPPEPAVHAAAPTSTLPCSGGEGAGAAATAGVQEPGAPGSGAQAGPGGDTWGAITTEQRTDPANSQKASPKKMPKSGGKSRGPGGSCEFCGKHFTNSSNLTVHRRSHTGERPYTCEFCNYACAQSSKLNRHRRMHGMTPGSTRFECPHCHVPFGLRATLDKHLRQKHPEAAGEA

[6] = target: phosphodiesterase 5A, transcript variant 1 (human, UniProt O76074 1-875)
[7] = target: T10, X-linked inhibitor of apoptosis, transcript variant 2 (human, UniProt P98170 1-497); test: protein array
T10 construct: on protein array; also called XIAP
T10 sequence (P98170 whole entry, change not shown): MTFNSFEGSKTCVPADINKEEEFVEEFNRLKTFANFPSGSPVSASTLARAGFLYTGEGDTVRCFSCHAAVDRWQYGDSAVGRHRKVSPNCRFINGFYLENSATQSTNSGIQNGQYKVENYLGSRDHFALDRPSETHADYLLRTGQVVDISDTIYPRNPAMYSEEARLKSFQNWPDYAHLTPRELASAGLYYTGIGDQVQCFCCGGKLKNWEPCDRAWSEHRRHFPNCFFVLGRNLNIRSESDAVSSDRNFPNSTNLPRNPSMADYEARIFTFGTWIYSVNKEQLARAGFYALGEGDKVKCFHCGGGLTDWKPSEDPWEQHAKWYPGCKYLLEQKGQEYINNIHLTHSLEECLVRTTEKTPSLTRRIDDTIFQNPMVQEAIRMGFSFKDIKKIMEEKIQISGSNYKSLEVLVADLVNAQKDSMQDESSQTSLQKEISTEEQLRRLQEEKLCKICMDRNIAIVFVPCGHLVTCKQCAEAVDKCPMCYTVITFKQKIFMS

[8] = target: T11, microtubule associated scaffold protein 2, transcript variant 2 (human, UniProt Q5JR59 1040-1369)
T11 construct: HuProt array protein, full-length recombinant from yeast; also called MTUS2
T11 sequence: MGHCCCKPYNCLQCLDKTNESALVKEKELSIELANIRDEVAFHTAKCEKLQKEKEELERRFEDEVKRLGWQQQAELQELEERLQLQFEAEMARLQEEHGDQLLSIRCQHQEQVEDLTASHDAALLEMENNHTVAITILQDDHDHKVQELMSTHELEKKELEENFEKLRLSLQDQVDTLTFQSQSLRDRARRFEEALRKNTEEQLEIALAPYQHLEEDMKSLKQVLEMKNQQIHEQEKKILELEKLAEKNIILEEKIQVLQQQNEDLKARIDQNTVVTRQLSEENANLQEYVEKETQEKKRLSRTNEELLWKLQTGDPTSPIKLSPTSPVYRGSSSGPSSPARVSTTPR

[9] = target: T12, anterior gradient 3, protein disulphide isomerase family member (human, UniProt Q8TD06 22-166)
T12 construct: HuProt array protein, full-length recombinant from yeast; also called AGR3
T12 sequence: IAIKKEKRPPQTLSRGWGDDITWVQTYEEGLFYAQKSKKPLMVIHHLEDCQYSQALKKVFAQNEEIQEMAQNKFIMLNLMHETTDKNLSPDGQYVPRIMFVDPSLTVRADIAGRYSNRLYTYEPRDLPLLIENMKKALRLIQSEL

[10] = target: T13, ubiquilin 1, transcript variant 2 (human, UniProt Q9UMX0 2-589)
T13 construct: HuProt array protein, full-length recombinant from yeast; also called UBQLN1
T13 sequence (Q9UMX0 other isoform, or with tags, fused parts or gaps mutant limits assumed): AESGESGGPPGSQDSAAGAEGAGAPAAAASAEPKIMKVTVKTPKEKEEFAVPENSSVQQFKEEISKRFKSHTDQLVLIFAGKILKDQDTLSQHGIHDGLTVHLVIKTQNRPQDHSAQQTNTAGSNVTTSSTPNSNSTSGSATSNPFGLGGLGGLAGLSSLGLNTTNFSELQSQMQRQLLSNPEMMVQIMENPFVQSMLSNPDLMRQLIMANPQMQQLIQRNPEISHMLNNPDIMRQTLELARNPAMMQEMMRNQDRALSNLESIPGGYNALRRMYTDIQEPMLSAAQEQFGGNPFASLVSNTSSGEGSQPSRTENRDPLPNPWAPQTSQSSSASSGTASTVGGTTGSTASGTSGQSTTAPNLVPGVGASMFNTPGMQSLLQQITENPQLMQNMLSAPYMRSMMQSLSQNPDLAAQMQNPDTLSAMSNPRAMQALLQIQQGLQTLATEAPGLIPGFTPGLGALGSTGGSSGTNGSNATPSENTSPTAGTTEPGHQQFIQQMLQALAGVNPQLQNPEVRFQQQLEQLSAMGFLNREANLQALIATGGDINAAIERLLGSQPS

ubiquilin 2 = target: T14, ubiquilin 2 (human, UniProt Q9UHD9 2-624)
T14 construct: HuProt array protein, full-length recombinant from yeast; also called UBQLN2
T14 sequence (Q9UHD9 2-624 limits assumed): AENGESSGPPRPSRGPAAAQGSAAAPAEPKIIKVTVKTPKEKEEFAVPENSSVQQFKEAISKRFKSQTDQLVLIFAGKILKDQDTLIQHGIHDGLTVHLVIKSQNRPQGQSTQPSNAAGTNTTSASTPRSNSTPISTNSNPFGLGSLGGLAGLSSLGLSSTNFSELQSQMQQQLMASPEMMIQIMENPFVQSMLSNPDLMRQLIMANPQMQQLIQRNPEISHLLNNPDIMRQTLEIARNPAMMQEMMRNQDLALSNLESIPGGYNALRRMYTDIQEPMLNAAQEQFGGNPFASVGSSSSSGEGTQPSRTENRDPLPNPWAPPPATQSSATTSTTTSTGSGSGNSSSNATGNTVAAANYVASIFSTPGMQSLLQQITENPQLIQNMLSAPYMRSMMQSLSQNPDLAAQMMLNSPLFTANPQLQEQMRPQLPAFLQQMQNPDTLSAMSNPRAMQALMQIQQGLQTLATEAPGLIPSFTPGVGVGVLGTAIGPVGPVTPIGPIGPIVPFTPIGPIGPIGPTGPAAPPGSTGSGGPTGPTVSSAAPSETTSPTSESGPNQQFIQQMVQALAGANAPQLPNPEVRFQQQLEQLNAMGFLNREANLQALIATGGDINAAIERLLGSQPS

Ubiquilin 3 = target: T15, Ubiquilin 3 (human, UniProt Q9H347 1-655)
T15 construct: HuProt array protein, full-length recombinant from yeast; also called UBQLN3
T15 sequence: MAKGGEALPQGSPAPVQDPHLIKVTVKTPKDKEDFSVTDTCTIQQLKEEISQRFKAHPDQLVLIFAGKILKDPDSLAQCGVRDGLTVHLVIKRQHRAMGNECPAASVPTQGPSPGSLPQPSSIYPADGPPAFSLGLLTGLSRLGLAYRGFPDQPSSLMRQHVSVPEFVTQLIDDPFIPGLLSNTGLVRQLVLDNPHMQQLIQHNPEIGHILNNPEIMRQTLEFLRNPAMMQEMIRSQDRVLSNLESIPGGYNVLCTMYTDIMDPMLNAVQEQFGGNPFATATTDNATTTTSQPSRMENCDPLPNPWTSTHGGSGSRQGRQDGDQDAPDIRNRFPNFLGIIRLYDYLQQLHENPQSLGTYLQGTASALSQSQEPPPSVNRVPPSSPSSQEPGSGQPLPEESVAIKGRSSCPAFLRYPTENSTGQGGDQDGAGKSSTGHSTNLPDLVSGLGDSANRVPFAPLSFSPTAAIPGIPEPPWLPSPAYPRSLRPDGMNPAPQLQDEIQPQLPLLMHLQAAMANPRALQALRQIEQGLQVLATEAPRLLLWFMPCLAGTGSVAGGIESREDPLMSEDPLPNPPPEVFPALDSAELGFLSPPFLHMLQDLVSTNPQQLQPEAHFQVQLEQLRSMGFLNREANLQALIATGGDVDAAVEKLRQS

T1 sequence (O43809 2-227 limits assumed): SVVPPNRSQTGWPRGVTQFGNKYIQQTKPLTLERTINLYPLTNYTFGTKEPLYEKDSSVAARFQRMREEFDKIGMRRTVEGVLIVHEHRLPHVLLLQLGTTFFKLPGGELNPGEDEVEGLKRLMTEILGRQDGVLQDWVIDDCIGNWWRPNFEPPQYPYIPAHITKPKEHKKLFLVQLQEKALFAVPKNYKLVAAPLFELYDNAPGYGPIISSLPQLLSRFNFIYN

B4: TMEL1032 (antibody, V domains shown)
VH: QVQLVQSGAEVRKPGASVKVSCKASGYTFTTYYIHWVRQAPGQGLEWMGLINPNGGTTNYAQKFQGRLSMTTDTSTNTVYMELSSLRSEDTAVYYCARKLMSGIVSRGWFDPWGQGTLVTVSS
VL: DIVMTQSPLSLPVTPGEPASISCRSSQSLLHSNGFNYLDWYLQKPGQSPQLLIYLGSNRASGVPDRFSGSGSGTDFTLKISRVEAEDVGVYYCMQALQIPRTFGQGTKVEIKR
notes: detected with anti-human IgG Fc
binding result [4]: binds
binding result [5]: binds

B6: TBRE1032 (antibody, V domains shown)
VH: EVQLVESGGGLVQPGGSLRLSCAASGFTFSSYDFHWVRQPTGKGLEWVSAIGTAGDTLYLDSVKGRFTISRENAKNSLYLQMNSLRAGDTAVYYCARVNWNSDTFDSWGQGTLVTVSS
VL: VSSELTQDPAVSVALGQTVRITCQGDSLRRYYASWYQQKAGQAPILVIYGENNRPSGIPDRFSGSGSGNTASLTITGAQAEDEADYYCDSRDSSGNLVVFGGGTKLTVL
notes: VH/VL only
binding result [7]: binds

B7: TMEL1027 (antibody, V domains shown)
VH: QVQLVQSGAEVKKPGASVKVSCKASGYTFTVYYMHWVRQAPGQGLEWMGRINPNSGGTNYAQKFQGRVTMTRDTSISTAYMELSRLTSDDTAVYYCARVVVVGTDYGMDVWGQGTTVTVSS
VL: VSSELTQDPAVSVALGQTVRITCQGDSLRSYYASWYQQRPGQAPVLVIYGKNNRPSGIPDRFSGSSSGNTASLTITGAQAEDEADYYCNSRDSSGNHVFGTGTKVTVLG
notes: as for B4
binding result [8]: binds

B8: TMEL1020 (antibody, V domains shown)
VH: QVHLVQSGAEVKKPGASVKVSCKASGYTFTNYFIHWVRQAPGQGPEWMGVINPSFGSTTYAQKLQGRVTMTRETSTSTVYMELSSLRSEDTAVYYCARESLDSASYSTIAHWGQGTLVTVSS
VL: EIVLAQSPGTLYLSPGERATLSCRASQSVRGNYLAWYQQRPGQAPRLLIYGASSRATGIPDRFGGSGSGTDFTLTITRLLPEDFAVYYCHQYGSSPRTFGQGTKVEIKR
notes: as for B4
binding result [9]: binds

B9: TMEL1018 (antibody, V domains shown)
VH: PLQLQESGPGLVKPSETLSLTCTVSGGSISSSSYYWGWIRQPPGKGLEWIGSIYYSGSTYYNPSLKSRVTISVDTSKNQFSLKLSSVTAADTAVYSCARLLVGGAFDIWGQGTMVTVSS
VL: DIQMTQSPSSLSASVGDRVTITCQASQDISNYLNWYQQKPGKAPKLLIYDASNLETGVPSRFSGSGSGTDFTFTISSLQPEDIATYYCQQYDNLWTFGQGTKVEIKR
notes: as for B4
binding result [10]: binds
binding result (ubiquilin 2): binds
binding result (Ubiquilin 3): binds

Results, then the binder that gave them:

binding result (nudix hydrolase 21): binds
binding result [1]: binds
binding result (Zinc finger protein 699): binds
B1: TMEL1033 (antibody, V domains shown)
VH: PVQLQESGPGLVKPSETLSLTCTVSGGSVSSGSYYWSWIRQPPGKGLEWIGYIYYSGSTNYNPSLKSRVTISVDTSKNQFSLKLSSVTAADTAVYYCARDRGDYVTHWFDPWGQGTLVTVSS
VL: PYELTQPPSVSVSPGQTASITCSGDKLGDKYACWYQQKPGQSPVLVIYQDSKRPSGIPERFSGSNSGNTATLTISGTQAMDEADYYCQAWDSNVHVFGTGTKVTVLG
notes: as for B4

binding result (Bcl2 like 1): binds
B2: TMEL1030 (antibody, V domains shown)
VH: QVQLQESGPGLVKPSGTLSLTCAVSGGSISSSNCWSWVRQPPGKGLEWLGEICHSGSTSYNPSLKSRVTISVDKSKNQFSLKLRSVTAADTAVYYCARESPLTVVFDYWGQGTLVTVSS
VL: DIQMTQSPSSLSASVGDRVTITCRASQGIRNDLGWFQQKPGKAPKRLIYAASNLPSGVSSRFSGSGSGTEFTLTISSLQPEDFATYYCLQHNNYPLTFGQGTKVEFKR
notes: as for B4

binding result [2]: binds
binding result [3]: binds
B3: TMEL1031 (antibody, V domains shown)
VH: EVQLVESGGGLVQPGGSLRLSCAASGFTVSSNYMSWVRQAPGKGLEWVSVIYSGGSTYYADSVKGRFTISRDNSKNTLSLQMNSLRAEDTAVYYCARESSAAGYDYWGQGTLVTVSS
VL: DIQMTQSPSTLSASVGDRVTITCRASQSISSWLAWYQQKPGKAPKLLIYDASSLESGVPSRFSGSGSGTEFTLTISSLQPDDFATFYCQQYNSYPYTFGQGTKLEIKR
notes: as for B4

binding result (zinc finger protein 296): binds
binding result [6]: binds
B5: TMEL1028 (antibody, V domains shown)
VH: QVQLVQSGAEVKKPGASVKVSCKASGYTFTSYGISWVRQAPGQGLEWMGWISAYNGNTNYAQKLQGRVTMTTDTSTSTAYMELRSLTSDDTAVYYCARDQGLERANWFDPWGQGTLVTVSS
VL: not shown
notes: as for B4
